The source of these data is the nanobody polyreactivity screen of Harvey et al. (2022).

A short description of the series: yeast display, Sf9 membrane polyspecificity reagent, FACS + sequencing; frameworks hold sequencing errors. The procedure, abridged: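 Galactose induction of a Saccharomyces cerevisiae BJ5465 synthetic nanobody display library ran 36–48 hours. The cells were then stained for 1 hour at 4 °C with 10% biotinylated, detergent-solubilized Sf9 membrane reagent, pulled down on streptavidin microbeads and FACS-sorted into low and high (top ~1%) gates on expression and reagent-binding fluorescence. Labels for polyreactivity follow the gate of origin.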
As to “QVQLVESGGGLVQAGRSLRLSCAASGRTFGTNAMGWYRQAPGKERELVAAISRRGGSTYYADSVKGRFTISRDNAKNTVYLQMNCLKPEDTAVYYCASDFWYYQYPYGGGGYWGQGTQVTVSS”, the “polyreactivity (PSR sort gate)” value was “low polyreactivity”. For “QVQLVESGGGLVQAGGSLRLSCAASGSIFSGYTMGWYRQAPGKERELVAGISYRGGSTYYADSVKGRFTISRDNAKNTVYLQMNSLKPEDTAVYYCAALYYRRGSLNYEYWGQGTQVTVSS” the value was “high polyreactivity”. For “QVQLVESGGGLVQAGGSLRLSCAASGRTFYRNAMGWYRQAPGKERELVAAITRGGRTYYADSVKGRFTISRDNAKNTVYLQMNSLKPEDTAVYYCNAVSYSSTLASKIPDDYWGQGTQVTVSS” the value was “high polyreactivity”; for “QVQLVESGGGLVQAGGSLRLSCAASGGIFGYYAMGWYRQAPGKERELVAAISYSGGSTYADSVKGRFTISRDNAKNTVYLQMNSLKPEDTAVFYCAARVSSVTRSGFGYWGQGTQVTVSS”, “high polyreactivity”; for “QVQLVESGGGLVQAGGSLRLSCAASGSIFGYNAMGWYRQAPGKERELVAAISGGGGTYYADSVKGRFTISRDNAKNTVYLQMNSLKPEDTAVYYCATDRVHKWLFYGTYYRYEYWGQGTHVTVSS”, “low polyreactivity”. In the case of “QVQLVESGGGLVQAGGSLSLSCAASGSIFESNAMGLYRQAPGKERELVAAYADSVKGRFTISRDNAKNTVYLQMNSLKPEDTAVYYCAKSLSLYVVPLYEYWGQGTQVTVSS” it was “low polyreactivity”; in that of “QVQLVESGGGLVQAGGTLRLSCAASGITFDYNAMGWYRQAPGKERELVATISDTGSTNYADSVKGRFTISRDNAKNTVYLQMNSLKPEDTAVYYCAADGLGDYHPKWEYQEYDYWGQGTQVTVSS”, “low polyreactivity”; in that of “QVQLVESGGGLVQAGGSLRLSCAASGRIFAGYAMGWYRQAPGKERELVASIRSSGSTYYADSVKGRFTISRDNAKNTVYLQMNSLKPEDTAVYYCNAVPRRRRYSRLGYWGQGTQVTVSS”, “high polyreactivity”. Take “QVQLVESGGGLVQAGGSLRLSCAASGITFDHYAMGWYRQAPGKERELVAAITSGGNTNYADSVKGRFTISRDNAKNTVYLQMNILKPVDTAVYYCNARYDVWYYYWGQGTQVTVSS”: the “polyreactivity (PSR sort gate)” value is reported as “high polyreactivity”. For “QVQLVESGGGLVQAGCSLRLSCAASGRIFYYNTMGWYRQAPGKERELVAAINFSGDRTYYADSVKGRFTISRDNAKNTVYLQMNSLKPEDTAVYYCAAQGYWYGYQPGNFWGQGTQVTVSS” the value was “high polyreactivity”; for “QVQLVESGGGLVQAGGSLRLTCAASGFIFYAYTMRCYRQAPGKERELVAAISRSGGRTYYADSVKGRFTISRDNAKNTVYLQMNRLKPEDTAVYYCAAEYRGVPRVVVDYDYWGQGTQVTVSS”, “high polyreactivity”. As for “QVHLVESGGGLVQAGGSLRLSCAASGRIINYYDMGWYRQAPGKERELVAAISRSGGRTYYADSVKGRFTISRDNAKNTVYLQMNSLKPEDNAVYYCAASDYQRYQPTPQYTYYYWGQGTQVTVSS”, the “polyreactivity (PSR sort gate)” value was “high polyreactivity”. In the case of “QFQLVESGGGLVQAGGSLRLSSAASGFTFVYYVMGWYRQAPGKERELVAAINAGGGSTYYADSVKGRITISRDNAKNTVYLQMYSLKPEDTAVYSFNARVRVRWGRNWSSYYYWGQGTQVTVSS” it was “high polyreactivity”; in that of “QVQLVESGGGLVQAGGSLRLSCAASGSTFTSYAMGWYRQAPGKERELVAAINWSGGSTYYADSVKGRFTISRDIAKNTVYLQMNSLKPEDTAVYYCAVLYRYGYDYWGQGTQVTVSS”, “low polyreactivity”. “QVQLVESGGGLVQAGGSLRLSCAASGSTFRYYAMGWYRQAPGKVRELVAAITSSGGSTYYADSVKGRFTISRDNEKNTVYLQMNSLKPEDTAVYYCNAVSSYREDDYWGQGTQVTVSS”: the “polyreactivity (PSR sort gate)” value is “high polyreactivity”. For “QVQLVESGGGLVQAGGSLRLSCAASGSIFFFNAMGWYRQAPGKERELVAAISESGTSTYYADSVKGRFTISRDNAKNTVYLQMNSLKPEDAAVYYCNVVFRYAYGVYYTPEFYYWGQGTQVTVSS” the value was “low polyreactivity”; for “QVQLVESGGGLVQAGGSLRLSCAASGRIFSFYAMGWYRQAPGKERELVATISDGGATTYYADSVKGRFTISRDNAKNTVYLQMNSLKPEDTAVYYCAADKRGRPGLPDYDSWGQGTQVTVSS”, “low polyreactivity”; for “QVQLVESGGGLVQAGGSLRLSCAASGSTFPFYDMGWYRQAPGKERELVAAIRSGGSTYADSVKGRFTISRDNAKNTVYLQMNSLKPEDTAVYYCAKRCPSNRYSRYRVKYDYWGQGSQVTVSS”, “low polyreactivity”. As to “QVQLQESGGGLVQAGGSLRLSCAASGNIVDADIMGWYRQAPGKEREIVASITDGGSTNYADSLKGRFTISRDHAKNTVYQQMNRLLPEDTAVYYCAAIAYPDIPTYFDYDSDYFYWGQGTQETVSS”, the “polyreactivity (PSR sort gate)” value was “high polyreactivity”. In the case of “QVQLVESAGGLVQAGGSLRLSCAASGLILHINTMGWYRQAPGKERELVAAISWSGDSTYYADSVKGRFTISRDNAKNTVYLQMNSLKPDDTAVYYCTTDYGHTYLYGYDYWGQGTQVTVSS” it was “high polyreactivity”; in that of “QVQLVESGGGLVQAGGSLRLSCAASGLTISAYAMGWYRQAPGKERELVAAITSSGGSTYADSVKGRFTISRDNAKNTVYLQMNSLKPEVTAVYYCAARVVRYGYKYYYWGQGTQVTVSS”, “low polyreactivity”; in that of “QVQLVESGGGLVQAGGSLRLSCAASGFTLRSYTMGWYRQAPGKERELVAAITSRGTSTYYADSVKGRFTISRDNAKNTVYLQMNSLKPEDTAVYYCADPIYNGYASWQVYYWGQGTQVTVSS”, “high polyreactivity”.

For the sequence “QVQLVESVGGLVQAGGSLRLSCAASGITLYGYAMGWYRQAPGKERELVAAISWRGGRTYYADSVKGRFTISRDNAKNTVYVQMNSLKPEDTAVYYCLARSYYNWYDYWGQGTQVTVSS”, the “polyreactivity (PSR sort gate)” value was “high polyreactivity”. In the case of “QVQLVESRGGLVQAGGSLRLSCAASGSTFDGNAMGWYRQAPGKERELVAAISIGGSTSYADSVKGRFTISRDNAKNTVYLQMNSLNPEDTAVYYCAADRYRTFYQWKRYRYDYWGQGTQVTVSS” it was “high polyreactivity”; in that of “QVQLVESGAGLVQAGGSLRLSSAASGSIFEPNAMGWYRQAPGKERELVAAITSGGTTYADSVKGRFTISRDNAKNSVYFQMNSLKPEDSAVYYCAAYYIFVYYYPFDYWGQGTQVTVSS”, “low polyreactivity”; in that of “QVQLVESGGGLVQAGGSLRLSCAPSGFIFYTNAMGWYRQAPGKDRELVAAITCIGVSTYYADSVKGRFTISRDYAKNTVYLKMNSLKPEDTEVYYCAADRNFLIFTPDNLTMDYWGQGTQVTVSS”, “low polyreactivity”. Consider “QVQLVESGGGLVQAGGSLRLSCAASGSIIVRYAMGWYRQAPGKERELVAAISWSGGRTYYADSVKGRFTISRDNAKNTVYLQMNSLKPEDTAVYYCAKRQGGRKYVRYEYDSWGQGTQVTVSS”, for which the “polyreactivity (PSR sort gate)” value was “low polyreactivity”.

Take “QVQLVESGGGLVQAGGSLRLSCAASGRIFYVNGMGWYRQAPGNERELVAAIRISGGRTYYADSVKGRFTISRDYAKYTVYFQMNSLKPEDTAVYFCAKRYYYPYAGYDYWGQGTQVTVSS”: the “polyreactivity (PSR sort gate)” value is “high polyreactivity”.

Consider “QVQLVESGGGLVQAGGSIRISCAASGSIFIIYAMGWYRQATGKEWELVAGIRGRCGSTYYADSVKGRFTISRDNAKNTVYLQMNSLKPEDTAVYYCDASVYRGYNYWGQGTQVTVSW”, for which the “polyreactivity (PSR sort gate)” value is reported as “high polyreactivity”. For “QVQLGESGGGLVQAGGSLRLSCAASGSIFGGNTKGWYRQAPGKERELVAAINGGVTTNYADSVKGRFTISRDNAKNTVYLQMNSLKPEDTAVYYCNAVDFGPVVLRLYYWGQGTQVTVSS”, the “polyreactivity (PSR sort gate)” value is recorded as “low polyreactivity”.
